Key:
Test in all cases: FRET or BRET; FRET efficiency by flow cytometry in co-transfected HEK-293T cells 24 h post-transfection; donor mCerulean fusion, acceptor mEYFP fusion; Cer alone as negative control
[1] = target: EYFP-Tsn (Drosophila melanogaster)
[2] = target: EYFP-Hsp26 (Drosophila melanogaster) (UniProt P02517)
[3] = target: EYFP-Pen (Drosophila melanogaster) (UniProt P52295)
Sequence of UniProt P52295 (P52295 whole entry): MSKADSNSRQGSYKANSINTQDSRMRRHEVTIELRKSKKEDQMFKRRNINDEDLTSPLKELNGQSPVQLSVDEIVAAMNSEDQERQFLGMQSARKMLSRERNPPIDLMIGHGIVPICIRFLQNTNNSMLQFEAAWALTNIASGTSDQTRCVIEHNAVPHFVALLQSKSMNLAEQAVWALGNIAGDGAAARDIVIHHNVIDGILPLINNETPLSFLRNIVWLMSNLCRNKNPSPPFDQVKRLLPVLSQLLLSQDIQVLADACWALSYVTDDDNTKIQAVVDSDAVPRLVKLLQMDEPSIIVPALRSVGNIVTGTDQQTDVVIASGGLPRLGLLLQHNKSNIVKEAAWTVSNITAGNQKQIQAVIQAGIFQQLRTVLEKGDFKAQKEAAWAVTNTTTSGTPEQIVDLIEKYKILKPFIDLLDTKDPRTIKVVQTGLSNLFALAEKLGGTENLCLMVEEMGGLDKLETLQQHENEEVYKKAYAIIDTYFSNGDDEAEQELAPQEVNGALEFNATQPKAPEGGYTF

Sequence of UniProt P02517 (P02517 whole entry): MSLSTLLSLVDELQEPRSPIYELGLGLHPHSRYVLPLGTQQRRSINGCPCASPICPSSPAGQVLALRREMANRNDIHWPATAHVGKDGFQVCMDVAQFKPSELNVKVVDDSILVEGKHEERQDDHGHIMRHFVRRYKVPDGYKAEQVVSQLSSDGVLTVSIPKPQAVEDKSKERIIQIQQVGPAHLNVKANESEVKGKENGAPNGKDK

FRET efficiency [1]: 3.8% | FRET efficiency [2]: 13.8% | FRET efficiency [3]: 7.9%
Substance: Cer-NtFT4 (mCerulean fusion of NtFT4) (natural protein)

Source: paper PMC9037272
